Patent US20190330338A1 (UNIVERSITY OF UTAH RESEARCH FOUNDATION, published 2019)
Where two headings read alike, the source gives them in different places.

T1: recombinant CD229 (human, UniProt Q9HBG7 48-454)
T1 chain: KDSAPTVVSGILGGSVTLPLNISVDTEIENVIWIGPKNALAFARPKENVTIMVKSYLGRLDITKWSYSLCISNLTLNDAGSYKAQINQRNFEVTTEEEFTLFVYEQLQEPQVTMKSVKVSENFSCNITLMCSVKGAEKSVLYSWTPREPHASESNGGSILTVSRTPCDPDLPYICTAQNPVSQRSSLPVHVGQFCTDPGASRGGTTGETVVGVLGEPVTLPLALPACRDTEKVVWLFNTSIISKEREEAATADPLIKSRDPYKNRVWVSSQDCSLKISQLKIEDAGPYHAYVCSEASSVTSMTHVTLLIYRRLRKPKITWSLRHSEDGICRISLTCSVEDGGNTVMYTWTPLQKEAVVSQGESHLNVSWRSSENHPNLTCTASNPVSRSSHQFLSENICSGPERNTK

T2: recombinant CD229 (human, UniProt Q9HBG7 48-454, limits assumed)
T2 construct: Labeled with allophycocyanin in the CAR flow cytometry assay; also called APC-labeled recombinant CD229; immobilized recombinant CD229
T2 sequence (looked up): T1 chain

B1: anti-CD229 antibody clone 2A2 expressed as scFv-Fc (Fc fusion)
chain: QMQLVQSGAEVKKPGSSVKVSCKASGGTFSSYAISWVRQAPGQGLEWMGGIIPIFGTANYAQKFQGRVTITADKSTSTAYMELSSLRSDDTAVYYCARDELWATNYYYMDVWGKGTLVTVSSLEGGGGSGGGGSGGGASQSALTQPRSVSGSPGQSVTISCTGTSSDVGSYNYVSWYQQSPGKAPKLMIYDVSNRPSGVSNRFSGSKSGNTASLTISGLQSEDEADYYCTSYGSYDIPVIFGGGTKLTVLG
notes: scFv fused C-terminally to an immunoglobulin Fc domain, expressed in mammalian cells; not shown: immunoglobulin Fc domain
B2: anti-CD229 CAR construct, Clone 2A2 (other)
chain: B1 chain
notes: CAR expressed on cells; also called anti-CD229 CAR clone 2A2; not shown: HA tag, CD8alpha hinge and transmembrane domain, 4-1BB co-stimulatory and CD3zeta signaling domains
B3: anti-CD229 CAR construct, Clone 1A9 (other)
chain: QITLKESGPTLVKPTQTLTLTCTFSGFSLSTSGVGVGWIRQPPGKALEWLALIYWNDDKRYSPSLKSRLTIAKDTSKNQVVLTMTNMDPVDTATYYCARMGWNDPHMVDYWGQGTLVTVSSLEGGGGSGGGGSGGGASDIQMTQSPSSLSASVGDRVTITCRASQSIGSSLHWYQQKPGKAPKFLIYDASSLESGVPSRFSGSGSGTEFTLTISSLQPDDFATYYCQQYNSYPLTFGGGTKLEIKR
notes: CAR expressed on cells; not shown: HA tag, CD8alpha hinge and transmembrane domain, 4-1BB co-stimulatory and CD3zeta signaling domains

Legend:
recombinant CD229 [1] = target: T1, recombinant CD229; test: SPR
recombinant CD229 [2] = target: T1, recombinant CD229; test: SPR
recombinant CD229 [3] = target: T2, recombinant CD229; test: competition SPR on immobilized CD229
Text: FIGS. 5A, 5B, 5C, 5D, and 5E show the binding, cross-reactivity, and selectivity of anti CD229 CAR T cells. (A) Cross-reactivity screening of 2 anti-CD229 antibody clones expressed as scFv-Fc constructs in mammalian cells by TRF assay using recombinant SLAM family members. […] (B) Cytotoxic activity of primary human T cells expressing CAR constructs based on two antibodies or GFP alone against CD229 positive myeloma cell line U266 and healthy autologous T cells as determined by flow cytometry. Anti-CD229 CARs specifically kill myeloma cells but not healthy T cells co-expressing CD229. […] (E) Competition SPR using immobilized CD229 and sequential injections of the primary antibodies followed by individual injection of antibodies to determine their ability to compete for the epitope recognized by the primary antibody. 1D5 and 2D3 occupy the same epitope space while 2A2 binds to a distinct epitope. Due to the lack of self-competition, 2A2 most likely binds to an epitope occurring twice in recombinant CD229, a tandem Ig domain-containing protein.

recombinant CD229 [4] = target: T2, recombinant CD229; test: flow cytometry of 293T cells expressing the CAR, stained with APC-labeled recombinant CD229
Procedure: In the final CAR construct, the scFv can be joined directly to a 45 amino acid hinge domain, which can alter binding properties of the antibodies. […] 20 of the 23 unique scFv binders still recognized CD229 with the new C-terminal fusion partner. All 23 unique binders were cloned into the CAR vector (FIG. 7D). The second-generation CAR construct uses a CD8α hinge and transmembrane domain with a CD3ζ signaling and a 4-1BB costimulatory domain. In addition, a hemagglutinin (HA) tag was added between the scFv and hinge domains to allow the simultaneous assessment of antigen binding and surface expression (FIG. 7D).

| Binder | Kd (recombinant CD229 [1]) [µM] | Kd (recombinant CD229 [2]) [µM] | binding result (recombinant CD229 [3]) | binding result (recombinant CD229 [4]) |
| --- | --- | --- | --- | --- |
| B1 | 0.0184 | 0.0184 | binds | – |
| B2 | – | – | – | binds |
| B3 | – | – | – | binds |
